Results taken from article PMC3338718, “Characterization of a Novel ArsR-Like Regulator Encoded by Rv2034 in Mycobacterium tuberculosis”.
Where a chain is given by its changes, count along the chain named.

Legend:
[1] = biological target: T1, Rv2034AE A32G;E35G (Mycobacterium tuberculosis) (UniProt O53478); test: EMSA
T1 sequence: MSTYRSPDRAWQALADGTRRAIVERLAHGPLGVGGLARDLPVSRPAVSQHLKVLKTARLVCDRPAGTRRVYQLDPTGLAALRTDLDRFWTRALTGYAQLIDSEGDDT

[2] = biological target: T2, Rv2034C61A C61A (Mycobacterium tuberculosis) (UniProt O53478); test: EMSA
T2 sequence: T1 sequence with G32A, G35E, C61A

[3] = biological target: T3, Rv2034 (ArsR family regulator) (Mycobacterium tuberculosis, UniProt O53478 1-107); test: EMSA; up to 1.2 uM protein; conditions: protein: recombinant, tags: N-terminal His6 (pET28a), chain copies: 2, label: 5' label (32P or FITC)
T3 sequence: T1 sequence with G32A, G35E

[4] = biological target: T3, Rv2034 (ArsR family regulator); test: EMSA; 0.1-1.2 uM protein; conditions: protein: recombinant, tags: N-terminal His6 (pET28a), chain copies: 2, label: 5' label (32P or FITC)

AATTTCTAGAGCCTGCGGCAAGCACGTCGGTTCCATAGCGATCCAGCACGCCGCAATACTAGGGAGCCTCTCTGCCGGTCATCGCCGCGACGCGCCGCATGGGTTCTCGGAAAATGCTTGTACCAGTCGACTTTCCGGCGGGCCAACGTCGCCAACCGATACTCGGCTCCAACGCCATGGGTGACGGGATGCCCGGATCACGTGTCACACCACCCGCGCACCCTTGCGGAAGAATATCCGTAAGTCTAAACTTACGGTTCGAATTCCCGG (double strand) [Rv2034p promoter]
binding [1]: no binding
binding [2]: no binding

B1: Rv2034BSmu2 (dsDNA)
DNA 1: GGAAGAATATGGCATTCACTAAACTGCATGTTCGTGTCCA
DNA 2: TGGACACGAACATGCAGTTTAGTGAATGCCATATTCTTCC
binding result ([3]; blunt): no binding

B2: Rv2034BSmu5 (dsDNA)
DNA 1: B1 DNA 1 with A23C, C24A, T25G, G30A
DNA 2: B1 DNA 2 with C11T, A16C, G17T, T18G
binding result [3]: no binding

B3: Rv2034BSmu4 (dsDNA)
DNA 1: AGAGTTGATACCGTAAGTTAGCACTTACGGACTTAAGGTT
DNA 2: AACCTTAAGTCCGTAAGTGCTAACTTACGGTATCAACTCT
binding result [4]: binds

B4: Rv2034BSmu3 (dsDNA)
DNA 1: GGAAGAATATCCGTAAGTCTGATAAAACTTACGGTTCGTGTCCA
DNA 2: TGGACACGAACCGTAAGTTTTATCAGACTTACGGATATTCTTCC
binding result ([4]; blunt): binds
